These results are taken from US20140271457A1 (AbbVie / Abbott, published 2014).

The chains are these.
B1: DVD3267 (bispecific antibody, IgG1)
VH: EVQLVESGGGLVQPGGSLRLSCAASGFSFSKYWLGWVRQAPGKGLEWVSDIYPGYDYTHYNEKFKDRFTISADTSKNTAYLQMNSLRAEDTAVYYCARSDGSSTYWGQGTLVTVSSASTKGPSVFPLAPEVQLQQSGPELVTPGASVKISCKASGYTFTKYWLGWVKQSHGKSLEWIGDIYPGYDYTHYNEKFKDTATLTVDKSSSIAYMEIRGLTSEDSAVYYCARSDGSSTYWGQGTLVTVSA
VL: DIQMTQSPSSLSASVGDRVTITCTSSQNIVHSNGNTYLEWYQQKPGKAPKLLIYKVSNRFSGVPSRFSGSGSGTDFTLTISSLQPEDFATYYCFQVSHVPYTFGQGTKVEIKRTVAAPDVQMIQSPSSLSASLGDIVTMTCTSSQNIVHSNGNTYLEWFQQKPGKAPKLLIYKVSNRFSGVPSRFSGSRYGTDFTLTISSLEDEDLATYFCFQVSHVPYTFGGGTKLEIKR
B2: DVD3284 (bispecific antibody, IgG1)
VH: EVQLVQSGAEVKKPGASVKVSCKASGYTFANYGIIWVRQAPGQGLEWMGWINTYTGKPTYAQKFQGRVTMTTDTSTSTAYMELSSLRSEDTAVYYCARKLFTTMDVTDNAMDYWGQGTTVTVSSASTKGPEVQLQQSGPELVTPGASVKISCKASGYTFTKYWLGWVKQSHGKSLEWIGDIYPGYDYTHYNEKFKDTATLTVDKSSSIAYMEIRGLTSEDSAVYYCARSDGSSTYWGQGTLVTVSA
VL: DIQMTQSPSSLSASVGDRVTITCRASQDISQYLNWYQQKPGKAPKLLIYYTSRLQSGVPSRFSGSGSGTDFTLTISSLQPEDFATYFCQQGNTWPPTFGQGTKLEIKRTVAAPDVQMIQSPSSLSASLGDIVTMTCTSSQNIVHSNGNTYLEWFQQKPGKAPKLLIYKVSNRFSGVPSRFSGSRYGTDFTLTISSLEDEDLATYFCFQVSHVPYTFGGGTKLEIKR
B3: DVD3287 (bispecific antibody)
VH: EVQLVQSGAEVKKPGASVKVSCKASGYTFANYGIIWVRQAPGQGLEWMGWINTYTGKPTYAQKFQGRVTMTTDTSTSTAYMELSSLRSEDTAVYYCARKLFTTMDVTDNAMDYWGQGTTVTVSSASTKGPSVFPLAPEVQLQQSGPELVTPGASVKISCKASGYTFTKYWLGWVKQSHGKSLEWIGDIYPGYDYTHYNEKFKDTATLTVDKSSSIAYMEIRGLTSEDSAVYYCARSDGSSTYWGQGTLVTVSA
VL: DIQMTQSPSSLSASVGDRVTITCRASQDISQYLNWYQQKPGKAPKLLIYYTSRLQSGVPSRFSGSGSGTDFTLTISSLQPEDFATYFCQQGNTWPPTFGQGTKLEIKRTVAAPDVQMIQSPSSLSASLGDIVTMTCTSSQNIVHSNGNTYLEWFQQKPGKAPKLLIYKVSNRFSGVPSRFSGSRYGTDFTLTISSLEDEDLATYFCFQVSHVPYTFGGGTKLEIKR
B4: DVD3286 (bispecific antibody, IgG1)
VH: EVQLVQSGAEVKKPGASVKVSCKASGYTFANYGIIWVRQAPGQGLEWMGWINTYTGKPTYAQKFQGRVTMTTDTSTSTAYMELSSLRSEDTAVYYCARKLFTTMDVTDNAMDYWGQGTTVTVSSASTKGPEVQLQQSGPELVTPGASVKISCKASGYTFTKYWLGWVKQSHGKSLEWIGDIYPGYDYTHYNEKFKDTATLTVDKSSSIAYMEIRGLTSEDSAVYYCARSDGSSTYWGQGTLVTVSA
VL: DIQMTQSPSSLSASVGDRVTITCRASQDISQYLNWYQQKPGKAPKLLIYYTSRLQSGVPSRFSGSGSGTDFTLTISSLQPEDFATYFCQQGNTWPPTFGQGTKLEIKRTVAAPSVFIFPPDVQMIQSPSSLSASLGDIVTMTCTSSQNIVHSNGNTYLEWFQQKPGKAPKLLIYKVSNRFSGVPSRFSGSRYGTDFTLTISSLEDEDLATYFCFQVSHVPYTFGGGTKLEIKR
B5: DVD3283 (bispecific antibody, IgG1)
VH: EVQLVQSGAEVKKPGASVKVSCKASGYTFANYGIIWVRQAPGQGLEWMGWINTYTGKPTYAQKFQGRVTMTTDTSTSTAYMELSSLRSEDTAVYYCARKLFTTMDVTDNAMDYWGQGTTVTVSSGGGGSGGGGSEVQLQQSGPELVTPGASVKISCKASGYTFTKYWLGWVKQSHGKSLEWIGDIYPGYDYTHYNEKFKDTATLTVDKSSSIAYMEIRGLTSEDSAVYYCARSDGSSTYWGQGTLVTVSA
VL: DIQMTQSPSSLSASVGDRVTITCRASQDISQYLNWYQQKPGKAPKLLIYYTSRLQSGVPSRFSGSGSGTDFTLTISSLQPEDFATYFCQQGNTWPPTFGQGTKLEIKRGGSGGGGSGDVQMIQSPSSLSASLGDIVTMTCTSSQNIVHSNGNTYLEWFQQKPGKAPKLLIYKVSNRFSGVPSRFSGSRYGTDFTLTISSLEDEDLATYFCFQVSHVPYTFGGGTKLEIKR
B6: DVD3043 (bispecific antibody, IgG1)
VH: EVQLVESGGGLVQPGGSLRLSCAASGFSLTNNNVNWVRQAPGKGLEWVGGVWAGGATDYNSALKSRFTISRDNSKNTAYLQMNSLRAEDTAVYYCARDGGYSSSTLYAMDAWGQGTLVTVSSGGGGSGGGGSEVQLVQSGAEVKKPGASVKVSCKASGYTFNNYGIIWVRQAPGQGLEWMGWINTYTGKPTYAQKFQGRVTMTTDTSTSTAYMELSSLRSEDTAVYYCARKLFNTVAVTDNAMDYWGQGTTVTVSS
VL: DIQMTQSPSSLSASVGDRVTITCRASEDIYNALAWYQQKPGKAPKLLIYNTDTLHTGVPSRFSGSGSGTDYTLTISSLQPEDFATYFCQHYFHYPRTFGQGTKVEIKRGGSGGGGSGDIQMTQSPSSLSASVGDRVTITCRASQDIENYLNWYQQKPGKAPKLLIYYTSRLQSGVPSRFSGSGSGTDFTLTISSLQPEDFATYFCQQGNTQPPTFGQGTKLEIKR
B7: DVD2766 (bispecific antibody, IgG1)
VH: EVQLVESGGGLVQPGGSLRLSCAASGFTFSNYGVEWVRQAPGKGLEWVSGIWADGSTHYADTVKSRFTISRDNSKNTLYLQMNSLRAEDTAVYYCAREWQHGPVAYWGQGTLVTVSSASTKGPEVQLVESGGGLVQPGGSLRLSCAASGFSLTNNNVNWVRQAPGKGLEWVGGVWAGGATDYNSALKSRFTISRDNSKNTAYLQMNSLRAEDTAVYYCARDGGYSSSTLYAMDAWGQGTLVTVSS
VL: DIQMTQSPSSLSASVGDRVTITCKASQLVSSAVAWYQQKPGKAPKLLIYWASTLHTGVPSRFSGSGSGTDFTLTISSLQPEDFATYYCQQHYRTPFTFGQGTKLEIKRTVAAPSVFIFPPDIQMTQSPSSLSASVGDRVTITCRASEDIYNALAWYQQKPGKAPKLLIYNTDTLHTGVPSRFSGSGSGTDYTLTISSLQPEDFATYFCQHYFHYPRTFGQGTKVEIKR
B8: DVD3264 (bispecific antibody, IgG1)
VH: EVQLVESGGGLVQPGGSLRLSCAASGFTFSNYGVTWVRQAPGKGLEWVSMIWADGSTHYASSVKGRFTISRDNSKNTLYLQMNSLRAEDTAVYYCAREWQHGPVAYWGQGTLVTVSSASTKGPEVQLQQSGPELVTPGASVKISCKASGYTFTKYWLGWVKQSHGKSLEWIGDIYPGYDYTHYNEKFKDTATLTVDKSSSIAYMEIRGLTSEDSAVYYCARSDGSSTYWGQGTLVTVSA
VL: DIQMTQSPSSLSASVGDRVTITCRASQLVSSAVAWYQQKPGKAPKLLIYWASARHTGVPSRFSGSGSGTDFTLTISSLQPEDFATYYCQQHYKTPFTFGQGTKLEIKRTVAAPDVQMIQSPSSLSASLGDIVTMTCTSSQNIVHSNGNTYLEWFQQKPGKAPKLLIYKVSNRFSGVPSRFSGSRYGTDFTLTISSLEDEDLATYFCFQVSHVPYTFGGGTKLEIKR

In the test the target is Recombinant Human TNF-α/TNFSF1A (human, UniProt P01375 77-233). The test is described as follows: cell-based or functional assay.
Recombinant Human TNF-α/TNFSF1A, sequence (P01375 77-233 limits assumed): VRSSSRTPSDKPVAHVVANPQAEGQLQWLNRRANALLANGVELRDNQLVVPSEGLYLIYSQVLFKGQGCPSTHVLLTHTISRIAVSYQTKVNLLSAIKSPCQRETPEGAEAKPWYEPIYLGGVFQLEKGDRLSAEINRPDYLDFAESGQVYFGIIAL
With B1, the “N-Terminal VD huTNFα Neutralization Assay IC50” value was determined as 2 pM.

On to B2, for which the “N-Terminal VD huTNFα Neutralization Assay IC50” value stood at 12 pM.

In the case of B3, the “N-Terminal VD huTNFα Neutralization Assay IC50” value was found to be 18 pM.

Take B4: the “N-Terminal VD huTNFα Neutralization Assay IC50” value amounted to 2 pM.

Consider B5, for which the “N-Terminal VD huTNFα Neutralization Assay IC50” value worked out at 2 pM.

Take B6: the “C-Terminal VD huTNFα Neutralization Assay IC50” value was found to be 128 pM.

Turning to B7, the “N-Terminal VD huTNFα Neutralization Assay IC50” value amounted to 10 pM.

Consider B8, for which the “N-Terminal VD huTNFα Neutralization Assay IC50” value turned out to be 6 pM.
